Columns and labels:
IFI16 HINab = IFI16 HINab (UniProt Q16666 189-761); experiment: AlphaScreen
IFI16 HINa = IFI16 HINa (UniProt Q16666 189-389); experiment: AlphaScreen
IFI16 HINa, sequence (Q16666 189-389): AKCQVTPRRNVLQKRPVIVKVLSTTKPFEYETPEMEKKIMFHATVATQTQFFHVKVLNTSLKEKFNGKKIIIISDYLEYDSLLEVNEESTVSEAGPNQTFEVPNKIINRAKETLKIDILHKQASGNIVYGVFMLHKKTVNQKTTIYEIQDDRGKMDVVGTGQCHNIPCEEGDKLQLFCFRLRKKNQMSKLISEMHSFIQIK

IFI16 HINab, sequence (Q16666 189-761): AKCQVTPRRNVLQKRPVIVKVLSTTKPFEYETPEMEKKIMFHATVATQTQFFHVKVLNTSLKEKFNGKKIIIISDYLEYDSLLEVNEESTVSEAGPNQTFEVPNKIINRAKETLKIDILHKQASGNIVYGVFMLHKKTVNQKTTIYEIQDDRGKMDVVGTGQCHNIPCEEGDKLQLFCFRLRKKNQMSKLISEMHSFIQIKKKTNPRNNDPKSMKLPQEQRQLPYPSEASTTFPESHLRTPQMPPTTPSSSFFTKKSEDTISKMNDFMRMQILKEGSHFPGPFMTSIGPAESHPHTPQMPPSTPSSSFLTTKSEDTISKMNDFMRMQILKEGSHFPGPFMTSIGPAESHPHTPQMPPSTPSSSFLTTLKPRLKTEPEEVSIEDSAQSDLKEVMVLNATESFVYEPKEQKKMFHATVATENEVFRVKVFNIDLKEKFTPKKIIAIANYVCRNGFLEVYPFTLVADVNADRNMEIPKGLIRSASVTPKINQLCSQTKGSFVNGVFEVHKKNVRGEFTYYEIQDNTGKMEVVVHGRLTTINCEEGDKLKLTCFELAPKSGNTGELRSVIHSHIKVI

B1: dsVACV 70mer (dsDNA)
DNA 1: CCATCAGAAAGAGGTTTAATATTTTTGTGAGACCATCGAAGAGAGAAAGAGATAAAACTTTTTTACGACT
DNA 2: AGTCGTAAAAAAGTTTTATCTCTTTCTCTCTTCGATGGTCTCACAAAAATATTAAACCTCTTTCTGATGG
binding result (IFI16 HINab): binds | binding result (IFI16 HINa): no binding

— paper PMC3142795
